Substrate in the data set: CC(=O)SCCNC(=O)CCNC(=O)[C@H](O)C(C)(C)COP(=O)(O)OP(=O)(O)OC[C@H]1O[C@@H](n2cnc3c(N)ncnc32)[C@H](O)[C@@H]1OP(=O)(O)O
The data set can be described thus: initial rates, Michaelis-Menten nonlinear regression. It counts as biochemical, Escherichia coli. As to conditions: 100 mM phosphate buffer pH 7.4, 25°C, acetyl-CoA 20-400 μmol/L. The text has this: initial rates, Michaelis-Menten nonlinear regression on Pta (phosphate acetyltransferase; EC 2.3.1.8)

Setting [1] is: natural variant Pta1 from E. coli CCTCC M 2016009.

B1: Pta (phosphate acetyltransferase; EC 2.3.1.8) (Escherichia coli K-12) (protein)
chain: SRIIMLIPTGTSVGLTSVSLGVIRAMERKGVRLSVFKPIAQPRTGGDAPDQTTTIVRANSSTTTAAEPLKMSYVEGLLSSNQKDVLMEEIVANYHANTKDAEVVLVEGLVPTRKHQFAQSLNYEIAKTLNAEIVFVMSQGTDTPEQLKERIELTRNSFGGAKNTNITGVIVNKLNAPVDEQGRTRPDLSEIFDDSSKAKVNNVDPAKLQESSPLPVLGAVPWSFDLIATRAIDMARHLNATIINEGDINTRRVKSVTFCARSIPHMLEHFRAGSLLVTSADRPDVLVAACLAAMNGVEIGALLLTGGYEMDARISKLCERAFATGLPVFMVNTNTWQTSLSLQSFNLEVPVDDHERIEKVQEYVANYINADWIESLTATSERSRRLSPPAFRYQLTELARKAGKRIVLPEGDEPRTVKAAAICAERGIATCVLLGNPAEINRVAASQGVELGAGIEIVDPEVVRESYVGRLVELRKNKGMTETVAREQLEDNVVLGTLMLEQDEVDGLVSGAVHTTANTIRPPLQLIKTAPGSSLVSSVFFMLLPEQVYVYGDCAINPDPTAEQLAEIAIQSADSAAAFGIEPRVAMLSYSTGTSGAGSDVEKVREATRLAQEKRPDLMIDGPLQYDAAVMADVAKSKAPNSPVAGRATVFIFPDLNTGNTTYKAVQRSADLISIGPMLQGMRKPVNDLSRGALVDDIVYTIALTAIQSAQQQ
notes: full length, untagged by primers (NdeI/HindIII in pET24a, native stop codon), expressed in E. coli BL21(DE3), DEAE-Sepharose purified, about 77 kDa; variant Pta1 (P69L) is natural in E. coli CCTCC M 2016009
As usually defined, the Km is the substrate concentration at which the rate is half of its maximum. A word on the kcat: it is the maximal rate divided by the concentration of active sites. One may read the kcat/Km as the second-order rate constant that governs catalysis at low substrate concentration. Turning to B1, the Km is 89 ± 6.3 µM, the kcat is 2380 ± 120 s⁻¹ and the kcat/Km amounted to 2.7e+07 ± 3.6e+06 M⁻¹ s⁻¹.

B2: Pta (phosphate acetyltransferase; EC 2.3.1.8) (Escherichia coli K-12; P69L) (protein)
chain: SRIIMLIPTGTSVGLTSVSLGVIRAMERKGVRLSVFKPIAQPRTGGDAPDQTTTIVRANSSTTTAAELLKMSYVEGLLSSNQKDVLMEEIVANYHANTKDAEVVLVEGLVPTRKHQFAQSLNYEIAKTLNAEIVFVMSQGTDTPEQLKERIELTRNSFGGAKNTNITGVIVNKLNAPVDEQGRTRPDLSEIFDDSSKAKVNNVDPAKLQESSPLPVLGAVPWSFDLIATRAIDMARHLNATIINEGDINTRRVKSVTFCARSIPHMLEHFRAGSLLVTSADRPDVLVAACLAAMNGVEIGALLLTGGYEMDARISKLCERAFATGLPVFMVNTNTWQTSLSLQSFNLEVPVDDHERIEKVQEYVANYINADWIESLTATSERSRRLSPPAFRYQLTELARKAGKRIVLPEGDEPRTVKAAAICAERGIATCVLLGNPAEINRVAASQGVELGAGIEIVDPEVVRESYVGRLVELRKNKGMTETVAREQLEDNVVLGTLMLEQDEVDGLVSGAVHTTANTIRPPLQLIKTAPGSSLVSSVFFMLLPEQVYVYGDCAINPDPTAEQLAEIAIQSADSAAAFGIEPRVAMLSYSTGTSGAGSDVEKVREATRLAQEKRPDLMIDGPLQYDAAVMADVAKSKAPNSPVAGRATVFIFPDLNTGNTTYKAVQRSADLISIGPMLQGMRKPVNDLSRGALVDDIVYTIALTAIQSAQQQ
notes: as for B1
In the case of B2, under setting [1], the Km worked out at 260 ± 13 µM, the kcat is 1480 ± 74 s⁻¹ and the kcat/Km is 5.7e+06 ± 500000 M⁻¹ s⁻¹.

Values taken from article PMC4922666, “L-Tryptophan Production in Escherichia coli Improved by Weakening the Pta-AckA Pathway” (PLoS ONE, 2016).
